The NTF2 design screens of Basanta et al. (2020)

Test: protease stability score; higher = more stable; yeast display proteolysis, trypsin and chymotrypsin;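 further: log10 excess protease needed over predicted unfolded state with 0 meaning unfolded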

Row | Sequence | protease stability score
1 | DEELEEQVKEFFHAIETGDEDKLRELADPNARFHVGEKNLHGMKDVAERIRREREHIRYTVQIDSIKADGNRAHVRVVAEKEHNGNPRHFVLNVEIVRHNGRIRKVEATEDK | 0.938
2 | DEELEHILKDILKAQKHNDEKRLEELFDPNVHFEVGDKRYNGMSRFAHELAQTQKEIKWRVQWQTWDVQGNKATMQAEAVFEVNGRPFRYTYQARVQVKNGKVKRHEIHVDPQQLRDQNS | -0.087
3 | DEELEKHADTLFEAWNHNDPKTVMKMFDPNAHVDVGDHRFRGREDLHDKMSEIQEHARLRVDVKDVKAQGEKATVRFSIEINYNGKPTQDDVVQDMEVRNGRIKRLSYRTDK | -0.13
4 | DEELERQFHEFLKALETNDPHRMRQLVDPNARIRVGDKRYHGMEEYAKDVVKKMEEARVSIDIKSIEVQGNHFVVEHEITRDQNGKPKTHRQRMFFTVKNGKVKEMQIEDQK | 0.596
5 | DEELFELLRELLKAEQTGDEERLSQLVDKDVSVKIGDHVIHGRDQFAKHASERHKQMDVKVRIDSYEVRGDQVEASMTVVHDHNGRPHKDTVTLQAKYDNGKIKEMRFDFDTTVLKKIES | 0.609
6 | DEELHEVVERLLQALRNGDPDQFKKNVDPNVKIVVGETQYHGREEAAHQLHQEHNNSSFQYVSVDVQVHGNKVVIDQRRRETQNGQPDSENFSEEAEAHNGKFKHIRQRSTK | -0.235
7 | DEELHEWVKEYLKALQHNDPNQFKRLADPNVRYHVGDKEVHGREEWAKLVEKRRDSMRLEMKSVSIDAQGNKARVRLRFVEEHDGRPKEFEADFDFHVSNGKLVTVKVDEDQ | 0.123
8 | DEELHTIANEFNKALDRGDRKKLVDLADPNAQAVVGDQTLHGMEHVAHTIKKRQEEMRLDLKSVSVSVKGNNAILNFNALLHVNGKPVEISMRIILTVSNGKIQVIVEQFDPEQMRTARK | -0.289
9 | DEELIKLAHELLRVFRRGDEDRFRQLVDPNARLQVGDTTLHGRENLAHHLRQVREHIRVDIKIDSMTAKGNKVDIKAKMNLEHNGRPDEKTVNFNVDVHNGKVHQMSFDVDS | 0.714
10 | DEELITSANEMLQQLTTGNPQEIEKQADPNARVVVGDKTYTGMDQMARDRATEVQQIRRSFRIKTVQNQGDNANIHAEYEFNINGQPRTFELTLNVEAHNGKFVHIKYHLDPDHLNKLES | -0.078
11 | DEELKERYERQEKAFENGDPDQAEDMMDPNVHVDVGNKELHGREEIVRDLHNVLQNWRFDRKVDSVNNRGDKLEVDAKQTLNVNGKPFHWHFTIVARAHNGKLKSQTVEMDPDTNRKIQS | -0.057
12 | DEELKKQMDEALKARQNNDEQRLRDLFDPNVHIQVGDKVITGREEYAKRVVTTLRQLRFKYTVKSVKTKPNHIEIDVEVHNNRNGNPSNRKIVINMEADNGKISHLSVEHDG | 0.585
13 | DEELKKTATEFNKALNQNDEKRLKTLADPNATFVVGDEVIHGMDHVNKHQHDLKRNLRISIDVRDMKNSGPQAHVNAQVVFEIDGRPRQVEINYIITYHNGKVKKVRVDMDPEQLKEIKK | 1.08
14 | DEELKKVVDRMMKAITEGNPDKVRHLMDKDVKVDIGDKRIQGNEQNARDNEKSQNHLEESLDVKRVDNKGDKATVHLTVHVNHNGKPETFKLDIHVQAHNGKVKNMNFQKRP | -0.076
15 | DEELKKWFHHWVRAMERGDEQELRNQADPNAKFKIGDKTYHGMDEFARQVVQELRHLRVHIRFKRVRNEPGRLSVDATVVREHNGKPDSYRQKASATYHNGKLTNMTINKDK | 0.735
16 | DEELLELFERWVDAVHNNDKEQLKRLMDPNVKFQIGDKRWEGREKLVKDIADEQRQIRVRYRVDTMDATNGRADVHAKVEIEVNGKPISFRVRVFMEVHNGKVKSIVWNIPEDDMKKLQK | 1.63
17 | DEELLELVRRWITAVRTNDPKQLEKNFDPNAKFEYGDKSVRGKEQVVREQEKQVQEIRFSYRISDFRVDNGRVEMEVKVHEKHNGRPDTKTVKWKAEMSNGRLVWMRMQKRQ | 0.412
18 | DEELLERIKRIMHSGNFTELANQMDKDAKIIIGDKVLHGREQVEEWYDHLEREVDHVEVHTMTIHNGHLTVHMRMTINGKTFKVIMVIEVHNGRVKRVEVRVTDPNVQKWLKSILQ | 1.26
19 | DEELLHRIRDFLRAVRHGDSDHLRQLMDEDVKMTVGDHEIHGRERILDKIKQTRDEQRIHIQVRSMHADGDKATVHADIENEHNGQPQTAKLRMTVQVENGRIKQIDVEIKQ | 0.904
20 | DEELLKELLKYLKVREHGDKDKFERMADPNAKIHVGDREVHGREHLAKEIKTEKEEMEVSVDRYTQRVNGDKARLKVDFKVEHNGKPERRAHVLVMHTHNGKIKSLKAQDTD | -0.111
21 | DEELLKEWETLVEDNNEQDLSKMADEDARVNVGDKHYHGRENVEKFITTLAQRIDRIDIKTVDNDGEKVRIDMIAKFNGHQLRVVLEMQAHNGRVKVINARATNEDQEKLWKDLVD | 0.798
22 | DEELLKIAKQFFEAEQNGDEDELKEQMDPNANLEYGDRTVHGRENIARWVSRVLREARIDFKEISVQDHNGRAKIHVRFVIDVNGRPNRMTRIVVVEQHNGRIKYLNIRMSEEQLKKLKE | 0.132
23 | DEELLRNLEEVFKKNNFSTLANLADKDATLIVGDKVYKGKQQVRDWANELDERIDHVSIHSIDNQGDTMVARMVLNVDGVNAEFTLSVEISNGRVQVISLKVTDDEVKDQISKMES | 0.953
24 | DEELMKTVHDLYSNLRQNDEHKFDELVDPNASLRVGDKRLHGREQIHDELKRQNEEIHVSRQMKEMTVHNGRADVNIRASETHNGQPDEFTIDATFELHNGRFISIDIKKRP | -0.529
25 | DEELNHQVHSFIKNVRQGNPKEAVKQADPNVRVQVGNKVINGRENMEKWYREMKREMRIVIKVDRIRAHNGRAEATYKVEYDVNGKPYTNTNSMHVEAHNGRIVSIYEDFDETHLREVQS | -0.367

Row | Sequence | protease stability score
26 | DEELQDRFRRMIRIREEGDEQKLNEQVDPNVRLRVGDKEIKGREQLEEDQKRKNKQMRIRIKHLEVEAQGNKVRVSIHMTMRVNGRPFHFEFTANYTYHNGKLKHADVNIDPDFVREVHQ | 0.027
27 | DEELQDTAHKLLKLRQRGNWKHVQEMFDENARRIVGDKTLTGMTEIAEEVKREHEQWHLKITDLKASVEGDKVDIKFHAVFDVNGHPVTVNAMVVIVNQGDKAKRIQIRIPESVLNRINQ | 0.292
28 | DEELQEEIEKFWKQLEFGNEDSLEKLMDPNAEMRVGDHTLHGRDSIAKELRRRQEEQRVDIHSYKLSAHNGRVTVNIDATFNHNGNPDRKIQRASLEISNGKLKRMDVRDEQ | -0.046
29 | DEELQELATRQMEALHTNDEKQWVDLFDPNARQRYGDKTIKGREQFSQHLRDMQRHMRVQIHTFSAQVSNGDIHLKIDQLNNVNGTPYRDTVHLEFRVHNGRVKEVILHVSEDQQKKIER | 0.918
30 | DEELQENAEHFMDDLKTGNEDSIKQNADPNAHFQIGDKTFHGREDFVKHIKKQRQHARIQLDVKNIDVQGDHVTINANVIVNVDGRPQSADVTILIRYHNGRIHTVLYSFSEKDKKKMES | 0.872
31 | DEELQENAEHLVKAMNKGDREEISRQVDKNASVEIGDQELHGREDIRRFFHEVHEEMRFHIEIKTVDVKGNEVTVHAEAENDDNGRPQTNEVDIDIKVKNGKITSMRIQYNS | -0.539
32 | DEELQKLVDDLLQALRSNNPEQFENNFDPNAKIRYGEKDVHGRTRFVKELQRERDDARFRIETYRVDNQGDKASLKMVFQRDHNGQPQRHTARAEIVVKNGKVQTAVFNFDS | -0.018
33 | DEELQKMVEQFFRNEQNGNRDQLKRLADPNVNFQYGDKTIHGMDTFLQRQRERHEDSRQDFKSIDMKVQGDKVRVTAVLEQETDGQPERFRREMTVEAHNGKIKSVNVQHSQ | -0.082
34 | DEELQSDVEEFLRNQTTGDEDRLKELADENAKVHVGDKTLHGMDQIKRYERQEREEMRIDYKHWDIKVSGNQVTVHFDFVNRFNGKPQHVSVILHVQFDNGKIKAADYRTDPREREKIRS | -0.463
35 | DEELQSQAERFLKNLQRGDETKLLQQMDPNAKMQYGDKTVHGRERLRTWVKHVKDEMRVQVDKFRQTVSGNHIRFDWDATFNINGTPDKIRIDVDIQVHNGRIKLITFRVSEEQTKRLHS | 0.371
36 | DEELRKLAEQLVTIFQTGNEHHVQELMDPNAKLQIGDTEFKGREEYVKEVKKRRDEMRFSIKKVKVDAHGDKIDIKIHMTMKHDGKPRDYVVTVHLRVQGDKIKSAHYQDTK | 0.155
37 | DEELRKNFHTFLELMKNGNPEKLAEMADPNVRVNIGDEQLRGKHRLHQHARHLKHSLRFDYQSVDVKVTGNRVDANLRVVVKVNGKPIDYTVKIHITWRNGKIKTMEIKIPEDDQKKMRR | -0.089
38 | DEELRKQAEELLKARKTNDERQNEELFDPNAHVRYGDRTLHGNEQASKDIADRLEEIRVSMSVEKVEVQGEHVRLEFKFEFEVNGRPQTQTATEEMTVHNGRIKEVRLNVSEEQKRRYKK | -0.026
39 | DEELRKQAEEVMKAWQHGDEKTYMDLFDPNAKWEYGDDNITGRENMSDYMRKVRKEIRVHVQSVEVRAHNGRLEVVATEEREHNGRPDTVTVIMEAKAHNGKIQVVRVEERQ | 0.404
40 | DEELRRRLEKFFRDLRNGNESEAVKLVDPNARFNIGDTEYHGMHDYARELLRQRHKLNWHVRQVTIEAKNGHVNITMSVQFNVNGRPDSYTNTVRAVLHNGRVKEMSNRVPKDQLHKIKK | 0.209
41 | DEELSKRAKHLIEMMKTGDEKEIQKQMDKDVKIDIGDKTIKGREDAAEQWRNRVEKIRWSLTIRHVNVQGNHVTMNVEVHLNVNGQPNRYTIEISFTFHNGKIVYISVSFDEDTEEKAKK | 1.18
42 | DEELTKRAQKQINVLRTGDEKKVLELMDPNAKLSVGEKEYHGMEDIAKTLAQENRQMRIDVKDMKFTSKGDTVDVTLSYVVDHNGQPDEQVVRVHIVAHNGKIKSQEVRRDS | -0.762
43 | DEELVDQVKSFIELLQKGNEDELMKQLDEDAKIHYGDKTIHGREQVREWVKRFKDEMRQKIDSVQFREKPNRVSMKADMSYTQNGTPHDQQIDATFRAHNGRIKQVNIQLTK | -0.084
44 | DEELVEQLKKMYENEKNGDPDKVHEQFDKDARIDIGEKQVRGRDQASREAERERKQINVEIKHVDIKAHNGRATIDMVIVFNINGQPHRRRVTVYAVLHNGKIKSMSRHMDPSEQDQLTQ | 0.343
45 | DEELVKRAEDMIKAIQRGDEDRINQMVDPNADVRVGDQRYDGMHEYVTRLKSRQKRMRRSVSVESVTAKNGQVRIDAKMTRNDNGRPERFKHIIIIKAENGEIQVIHVHKSQ | -0.078
46 | DEELVKRLKKLLEALESGDEEKVHHMFDPNVRFQVGDKRFHGRERYASTVKREKDEMRNEVTSYRLTATGDKAEMSFRNILDENGSPHDDIQVMHVHVQGDKIKRASIQETR | 0.071
47 | DEELYKLMEQVIKAWEENDETQLKRLADPNVKVSIGDKRVHGRDQMAEDAKRRKKQLRFNIDIKSYSVHNGRVNARATVHNDVNGQPREDTVNIQMEWSNGQLTNFNMRMDEDFLRKIRS | 0.752
48 | DEEMEKRWEEWLDAVTTGDESRVREYMDPNVRYNYGDKHYTGREEIAHDTVREVKRIRIEIKTMSNDDQGEHVRVRFNRVKNDNGEPKEEVLVVEFTQENGRITEATQHEDR | -0.004
49 | DEEMLEVVKQLLHAYQNGDEEKVKRLLDPNARVQVGDQVVHGRESYANEVRKERDEIRFDVKITSVKVHNGKIDIKADVHVNINGKPVKFDVIIEYKMEGDKIKQINVQMDPSQWKERES | 0.913
